# Experimental data reported in patent publication US20190330339A1 (published 2019).
# T1: human LAG-3-hFc (human, UniProt P18627 23-450)
# T1 construct: also called human LAG3-Fc; not shown: human Fc (hFc)
# T1 sequence: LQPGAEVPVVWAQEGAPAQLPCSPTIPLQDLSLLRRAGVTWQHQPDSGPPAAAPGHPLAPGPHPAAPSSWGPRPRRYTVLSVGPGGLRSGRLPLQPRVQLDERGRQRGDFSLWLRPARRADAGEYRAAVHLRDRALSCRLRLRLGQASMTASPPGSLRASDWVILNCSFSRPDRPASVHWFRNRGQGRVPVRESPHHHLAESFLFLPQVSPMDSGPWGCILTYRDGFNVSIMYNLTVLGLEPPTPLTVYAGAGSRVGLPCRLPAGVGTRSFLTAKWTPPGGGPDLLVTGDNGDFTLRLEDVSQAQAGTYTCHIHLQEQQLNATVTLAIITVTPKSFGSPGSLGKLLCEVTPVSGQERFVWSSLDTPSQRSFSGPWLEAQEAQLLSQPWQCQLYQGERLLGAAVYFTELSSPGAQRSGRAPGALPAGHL
# T2: human LAG-3 expressed on cells (human, UniProt P18627 23-525)
# T2 construct: the transgene of the cell lines is not tied to it by name; also called hLAG-3; 3A9.hLAG-3
# T2 sequence: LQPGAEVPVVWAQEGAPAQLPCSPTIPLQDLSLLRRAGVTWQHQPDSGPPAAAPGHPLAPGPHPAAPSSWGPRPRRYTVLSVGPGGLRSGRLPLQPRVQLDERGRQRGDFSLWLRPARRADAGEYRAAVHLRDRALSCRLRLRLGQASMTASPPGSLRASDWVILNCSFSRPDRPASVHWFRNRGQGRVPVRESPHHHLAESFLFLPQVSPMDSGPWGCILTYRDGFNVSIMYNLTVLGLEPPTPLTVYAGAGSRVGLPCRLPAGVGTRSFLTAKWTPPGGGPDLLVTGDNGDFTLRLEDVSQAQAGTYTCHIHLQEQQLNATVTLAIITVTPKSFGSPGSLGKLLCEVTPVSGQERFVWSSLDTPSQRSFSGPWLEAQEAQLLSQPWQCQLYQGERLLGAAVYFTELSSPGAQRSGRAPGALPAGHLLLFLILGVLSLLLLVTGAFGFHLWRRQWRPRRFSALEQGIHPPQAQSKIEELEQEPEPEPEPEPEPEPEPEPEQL
# Assays:
# human LAG-3-hFc = biological target: T1, human LAG-3-hFc; assay: flow cytometry ligand competition; LAG-3-hFc on Daudi cells
# Experimental: A Nanobody dilution series was prepared in assay buffer: HBSS/2% FBS. Prior to the experiment, Fc receptors on the Daudi cells were blocked with human Fc block (BD Pharmingen, 564220) and 5 μg/mL goat IgG (Jackson ImmunoResearch, 005-000-003) for 30 minutes at 4° C. […] 1×10⁵ cells/well were seeded in V-bottom 96-well plates and resuspended in 100 μL/well of the Nanobody/ligand dilution. After 30 minutes incubation at 4° C., the cells were washed and resuspended in 100 μL/well PE-labeled Goat anti-human IgG (Southern Biotech, 2043-09). Samples were incubated for 15 minutes at 4° C., washed, and resuspended in 100 μL/well of 5 nM TOPRO3 (LifeTechnologies, T3606) solution before analysis on FACS CANTO II (BD).
# [1] = biological target: T2, human LAG-3 expressed on cells; assay: flow cytometry on 3A9 cells over-expressing human LAG-3
# Experimental: Binding to cell-expressed human LAG-3 was evaluated on human LAG-3 over-expressing 3A9 cells. A Nanobody dilution series was prepared in assay buffer: PBS/10% FBS/0.05% sodium azide. 1×10⁵ cells/well were transferred to a 96-well V-bottom plate and resuspended in 100 μL Nanobody dilution. After 30 minutes incubation at 4° C., the cells were washed with 100 μL/well assay buffer and resuspended in 100 μL/well of 1 μg/ml anti-FLAG (Sigma, F1804). […] Samples were incubated for 30 minutes at 4° C., washed, and resuspended in 100 μL/well of 5 nM TOPRO3 (LifeTechnologies, T3606) solution before analysis on FACS CANTO II (BD).
# [2] = biological target: T3, human PD-1 expressed on cells (human, UniProt Q15116 25-288); assay: flow cytometry ligand competition on CHO cells over-expressing human PD-1
# T3 construct: the transgene of the cell lines is not tied to it by name; also called hPD-1; CHO.hPD-1
# T3 sequence (Q15116 25-288 limits assumed): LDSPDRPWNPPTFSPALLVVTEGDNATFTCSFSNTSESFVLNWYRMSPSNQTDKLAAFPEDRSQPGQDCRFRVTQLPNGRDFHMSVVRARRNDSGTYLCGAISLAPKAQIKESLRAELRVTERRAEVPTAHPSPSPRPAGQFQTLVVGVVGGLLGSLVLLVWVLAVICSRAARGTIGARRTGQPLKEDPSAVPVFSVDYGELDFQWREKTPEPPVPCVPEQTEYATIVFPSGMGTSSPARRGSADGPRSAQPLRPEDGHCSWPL
# Experimental: Ligand competition assays were performed on human PD-1 over-expressing CHO cells. A Nanobody dilution series was prepared in assay buffer: PBS/10% FBS/0.05% sodium azide. […] 2×10⁴ cells/well were seeded in V-bottom 96-well plates and resuspended in 200 μL/well of the Nanobody/ligand dilution. After 90 minutes incubation at 4° C., the cells were washed with 100 μL/well assay buffer and resuspended in 100 μL/well PE-labeled Goat anti-human IgG (Southern Biotech, 2043-09). Samples were incubated for 30 minutes at 4° C., washed, and resuspended in 100 μL/well of 5 nM TOPRO3 (LifeTechnologies, T3606) solution before analysis on FACS CANTO II (BD).
binding result (human LAG-3-hFc),binding result [1],binding result [2],Binder
binds,binds,,"F0237611B09-FLAG3-HIS6 (VHH, Original monovalent anti-human LAG-3 Nanobody; also called F0237611B09-FLAG-His6; F02376611B09) VHH: EVQLVESGGGLVQAGGSLRLSCAASGRTFSDYVMGWFRQARGNEREFVAAISESGGRTHYADAVKGRFTISRDNAKNTLYLQMNSLKPEDTAVYYCATTLLWWTSEYAPIKANDYDYWGQGTLVTVSS"
,,binds,"F023700275 (1PD102C12(A14P, A74S, K83R)-FLAG3-HIS6) (VHH, Monovalent anti-human PD-1 Nanobody, parent of F023700706) VHH: EVQLVESGGGLVQPGGSLRLSCAASGSIASIHAMGWFRQAPGKEREFVAVITWSGGITYYADSVKGRFTISRDNSKNTVYLQMNSLRPEDTAIYYCAGDKHQSSWYDYWGQGTLVTVSS"
